± gives the standard deviation of the averaged measurements.
test system: ATP; assay: switch fluorescence ratio, 500 uM ATP over buffer (Cy3 cluster intensity, sum of 5 cycles each) (fold (ratio)); higher = stronger signal-on switching upon ATP binding; sequences stand for … in TCGTCGGCAGCGTCAGATGTGTATAAGAGACAGTTTTTTTTTTTTTTTTTTTTTTTTT…TC; settings: aptamer strand: ATP DNA aptamer (quencher-CACCTGGGGGAGTATTGCGGAGGAAGG + anchor), 100 nM annealed; ATP concentration: 500 uM
How it was run: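 Five buffer/ATP imaging cycles were run on Cy3-labelled switching-strand clusters on a modified Illumina MiSeq flow-cell, with NaOH stripping and re-annealing between cycles. In each cycle, clusters annealed to 100 nM quencher-labelled ATP aptamer were imaged in selection buffer, then after 15 min with 500 uM ATP at 22 °C. Per cluster, the fluorescence ratio is summed target-cycle over summed buffer-cycle Cy3 intensity, averaged per switch-domain sequence. Only clusters within 100-1000 RFU were kept.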
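Further: ATP exposure 15 min at 22 °C before imaging.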

Point of comparison: ACGGGTAGCA, switch fluorescence ratio 0.999 ± 0.016. Against it:
- ACGGGGGGCG — within error, 0.984 ± 0.052
- ACGGGGGGCT — within error, 0.995 ± 0.057
- ACGGGGGTAG — within error, 0.989 ± 0.022
- ACGGGGGTTC — within error, 1.01 ± 0.012
- ACGGGGTAAA — within error, 1.004 ± 0.009
- ACGGGGTCAC — higher, 1.026 ± 0.0017
- ACGGGGTGCA — within error, 0.99 ± 0.017
- ACGGGGTGTT — within error, 1 ± 0.04
- ACGGGGTTGC — within error, 1.01 ± 0.017
- ACGGGGTTGG — within error, 1.03 ± 0.024
- ACGGGTAATC — higher, 1.071 ± 0.0095
- ACGGGTAGAC — higher, 1.0808 ± 0.001
- ACGGGTGGCA — within error, 0.986 ± 0.019
- ACGGGTGGGT — within error, 1.08 ± 0.15
- ACGGGTTGAG — within error, 1.03 ± 0.029
- ACGGTAGAAA — within error, 1.01 ± 0.012
- ACGGTGAGGG — within error, 1.02 ± 0.026
- ACGGTTAAGG — within error, 1.03 ± 0.019
- ACGGTTCGGA — within error, 1.02 ± 0.019
- ACGGTTGTGC — within error, 1.01 ± 0.04
- ACGGTTGTTC — higher, 1.027 ± 0.005
- ACGTAAAGAC — within error, 1.17 ± 0.23
- ACGTACTTGA — higher, 1.52 ± 0.085
- ACGTAGTTTC — higher, 1.05 ± 0.023
- ACGTATAGAG — within error, 0.991 ± 0.042
- ACGTATCCGG — within error, 0.9932 ± 0.0067
- ACGTCAAAAC — higher, 2.91 ± 0.41
- ACGTCAGTCA — within error, 0.976 ± 0.023
- ACGTCGGAG — within error, 0.995 ± 0.046
- ACGTCGGGTG — higher, 1.25 ± 0.15
- ACGTCGTAGG — higher, 1.05 ± 0.016
- ACGTCTTTGG — within error, 1.02 ± 0.043
- ACGTGACGGG — higher, 1.07 ± 0.029
- ACGTGGAAGC — within error, 1.04 ± 0.043
- ACGTGTTGGC — within error, 1.02 ± 0.052
- ACGTTAAGTT — higher, 1.1 ± 0.029
- ACGTTAGTCG — lower, 0.9687 ± 0.0095
- ACGTTGATGG — within error, 0.9882 ± 0.0095
- ACGTTGCCAG — lower, 0.963 ± 0.019
- ACGTTTGCG — within error, 0.98 ± 0.04
- ACGTTTGGAT — within error, 1.02 ± 0.027
- ACGTTTGTCC — within error, 1.03 ± 0.022
- ACGTTTTTTT — within error, 0.988 ± 0.035
- ACTAAAGGGG — higher, 1.04 ± 0.021
- ACTAACTAAT — within error, 1.06 ± 0.056
- ACTAAGTAAC — within error, 1.04 ± 0.037
- ACTAAGTCTG — within error, 1.02 ± 0.045
- ACTAATGGTT — within error, 1.03 ± 0.022
- ACTACCTACA — higher, 1.364 ± 0.0065
- ACTACGTCGG — higher, 1.08 ± 0.044
- ACTACTGCTG — higher, 1.05 ± 0.0044
- ACTACTGGTT — within error, 1.03 ± 0.03
- ACTAGCTTGT — within error, 1.04 ± 0.026
- ACTAGGATGG — within error, 0.99 ± 0.026
- ACTAGGTCCG — within error, 1.005 ± 0.0016
- ACTAGTCACG — higher, 1.072 ± 0.0093
- ACTATATAAT — higher, 1.08 ± 0.014
- ACTATCGGGA — within error, 1.02 ± 0.037
- ACTATGAAAA — higher, 1.037 ± 0.0011
- ACTATGGCCC — within error, 1.03 ± 0.017
- ACTATGGCGG — within error, 1.03 ± 0.032
- ACTATGGTAA — lower, 0.9704 ± 0.008
- ACTATTAATC — within error, 1 ± 0.02
- ACTATTGCGG — within error, 1.01 ± 0.025
- ACTATTTTTG — lower, 0.9745 ± 0.0067
- ACTCACGGAG — higher, 1.16 ± 0.036
- ACTCAGATTG — within error, 1.05 ± 0.056
- ACTCATAATT — higher, 1.0222 ± 0.00042
- ACTCATGATG — within error, 0.99 ± 0.024
- ACTCCGTCTT — higher, 1.441 ± 0.0027
- ACTCCTCTTT — higher, 1.093 ± 0.0093
- ACTCCTGTAA — higher, 1.13 ± 0.11
- ACTCCTTGCT — higher, 1.24 ± 0.018
- ACTCGAAGGG — within error, 1.02 ± 0.042
- ACTCGACCTT — higher, 1.21 ± 0.15
- ACTCGCAGGG — higher, 1.073 ± 0.0016
- ACTCGGAATT — higher, 1.12 ± 0.019
- ACTCTAAAAA — higher, 1.05 ± 0.012
- ACTCTCGAGG — within error, 1.24 ± 0.34
- ACTCTGGCGT — higher, 1.08 ± 0.024
- ACTCTGGGGG — within error, 1.07 ± 0.092
- ACTCTTGCGG — within error, 1.01 ± 0.016
- ACTCTTGTTT — higher, 1.03 ± 0.014
- ACTGACAGCG — higher, 1.0189 ± 0.00036
- ACTGAGGAAA — within error, 1.01 ± 0.046
- ACTGAGGTAA — within error, 0.95 ± 0.043
- ACTGAGTTTG — within error, 1 ± 0.016
- ACTGATCAGA — within error, 0.99427 ± 0.00038
- ACTGATCGCG — within error, 1.02 ± 0.034
- ACTGATGGTA — within error, 1.02 ± 0.025
- ACTGATGTAC — higher, 1.09 ± 0.012
- ACTGATTTTG — within error, 1.01 ± 0.029
- ACTGCCCGGC — within error, 1.1 ± 0.12
- ACTGGACGAT — higher, 1.19 ± 0.015
- ACTGGGATGT — higher, 1.02 ± 0.0043
- ACTGGGGACG — within error, 1.02 ± 0.053
- ACTGGGGGGC — higher, 1.05 ± 0.016
- ACTGGGGGGT — within error, 0.994 ± 0.02
- ACTGGGGGTT — within error, 0.994 ± 0.029

From the supplement of paper PMC10126150
